Experimental data as given in publication PMC5089723, “Structural Insights into the Nucleotide-Binding Domains of the P1B-type ATPases HMA6 and HMA8 from Arabidopsis thaliana” (PLoS ONE, 2016).

Target: the molecule itself
Assay: not stated; oligomeric state of the purified N/P domains and of their truncated fragments 'in solution'

B1: HMA6 nucleotide binding and phosphorylation domains (HMA6^N/P, residues 576-853) (domain or fragment, Arabidopsis thaliana, UniProt Q9SZC9 576-853, looked up)
chain: RGLLLRGGDILEKFSLVDTVVFDKTGTLTKGHPVVTEVIIPENPRHNLNDTWSEVEVLMLAAAVESNTTHPVGKAIVKAARARNCQTMKAEDGTFTEEPGSGAVAIVNNKRVTVGTLEWVKRHGATGNSLLALEEHEINNQSVVYIGVDNTLAAVIRFEDKVREDAAQVVENLTRQGIDVYMLSGDKRNAANYVASVVGINHERVIAGVKPAEKKNFINELQKNKKIVAMVGDGINDAAALASSNVGVAMGGGAGAASEVSPVVLMGNRLTQLLDAME
notes: also called N/P domain of HMA6; source: expressed and purified
  stoichiometry N: 2

B2: HMA8 nucleotide binding and phosphorylation domains (HMA8^N/P, residues 526-806) (domain or fragment, Arabidopsis thaliana, UniProt B9DFX7 526-806, looked up)
chain: RGYLIRGGDVLERLASIDCVALDKTGTLTEGRPVVSGVASLGYEEQEVLKMAAAVEKTATHPIAKAIVNEAESLNLKTPETRGQLTEPGFGTLAEIDGRFVAVGSLEWVSDRFLKKNDSSDMVKLESLLDHKLSNTSSTSRYSKTVVYVGREGEGIIGAIAISDCLRQDAEFTVARLQEKGIKTVLLSGDREGAVATVAKNVGIKSESTNYSLSPEKKFEFISNLQSSGHRVAMVGDGINDAPSLAQADVGIALKIEAQENAASNAASVILVRNKLSHVVD
notes: also called N/P domain of HMA8; source: expressed and purified
  stoichiometry N: 2
